Consider 3 molecules from patent publication US20140057311A1, “Device For High Throughput Investigations Of Multi-Cellular Interactions” (priority 2010, published 2014).

For test [1], the system named is dorsal root ganglion (DRG) neurons. Nature of the test: DRG axonal outgrowth and turning under slit-2 gradient after 5-FU treatment. Format: cell-based, mice. Here is the method: (§1) Primary hippocampal neurons and dorsal root ganglion (DRG) neurons cultured in the devices were obtained from embryonic day 14.5-16.5 mice as per protocols described in detail elsewhere (R. Li, Methods. Cell. Biol., 1998, 57, 167; W. E. Thomas, Life. Sci., 1986, 38, 297; A. V. Kwiatkowski, et al., Neuron, 2007, 56, 441). Cells from micro-dissected cortices were dissociated and resuspended in serum-free media at a final concentration of 10 million cells/mL. The neurons were seeded into the devices (n=10 devices per test condition) immediately after dissociation and cultured for 1-2 days, with serum-free media replaced in all the channels twice a day, before any guidance cue was introduced. All cell cultures were maintained in a humidified incubator at 5% CO2 and 37° C. For netrin-1 studies (FIGS. 11A-11C), hippocampal neurons were transfected using amaxa nucleofection, with a pmax-gfp plasmid cotransfected with a plasmid expressing DCC (deleted in colorectal cancer) receptor (M. J. Galko and M. Tessier-Lavigne, Science, 2000, 289, 1365).
(§2) Netrin-1 added in the channel was obtained from multiple sources: lab-isolated (T. Serafini, et al., Cell, 1994, 78, 409) netrin-1 (0.1-10 μg/mL), and netrin-1 released from cDNA transfected stable fibroblast cell line (K. Löw, et al., J. Neurosci., 2008, 28, 1099). […] Brain pulp was prepared in the lab from fresh whole mouse brain tissues. Briefly, the brain tissue was homogenized with a rotor stator in a hypotonic solution supplemented with protease inhibitors (protease inhibitor cocktail; Roche, USA), filtered, total protein content measured using a Bradford protein assay, and diluted to […] concentration. […]
(§3) Phase-contrast, fluorescence and confocal microscopy were used to characterize axonal distribution and quantify axonal turning in 3D collagen gels within the devices. […] The last 100 μm segment along the length of each axon leading to the growth cone was traced with NeuronJ (E. Meijering, et al., Cytometry. Part. A, 2004, 58, 167), and the angle this segment makes with the horizontal line (0°) was measured. […]

In test [2] the test system is Human Lung Cancer Cell Line A549 aggregates. Briefly: A549 cancer aggregate break-up/migration in collagen gel with HUVEC monolayer, high throughput microfluidic device. The class given is cell-based. Here is the method: Red colure cells are from Human Lung Cancer Cell Line A549 were transfected with H2B protein (m-Cherry), and partially disassociated, yielding cell aggregates of random sizes, between 40 um and 70 um. This was aspirated through a 100 micrometer strainer, yielding a media with cell aggregates with radii under 100 micrometers. This was poured through a second 40-micrometer filter, yielding a media with A549 aggregates between 40 and 100 micrometers. The cells were then centrifuged at 800 rpm for 2 minutes, and the media aspirated.
Collagen gel was prepared by adding 9 microliters of 1 M NaOH to 20 microliters of Phosphate Buffered Solution (BD Bioscience), and then adding 46 microliters of ultrapure H2O. Finally, 125 microliters of Type I Rat Tail Collagen at 2.5 mg/mL (BD Biosciences) were added, and mixed thoroughly.
The A549 aggregates were then mixed with the collagen gel, yielding a mixture of aggregates within the gel. Ten microliters of the gel were then injected into the center channel of the device shown in FIGS. 1 and 2, yielding 36 distinct gel-fluid interfaces within the device.
Human Umbilical Vein Endothelial Cells were transfected by GFP protein label disassociated, and flowed into the first media channel. Media without cells was added to the second channel. Adding a small bubble of media on each port of the first media channel yielded a hydrostatic pressure gradient, pushing cells to the gel-media interfaces. The pressure gradient was maintained for one hour, before the bubbles were removed. The device was cultured, and imaged at 0, 12, 36, 60, 84, and 108 hours. The endothelial cells were seen to create an endothelial monolayer along the bottom of the media channel, as well as on the gel-media interface.
In the control group, no drugs were added to the system. In the experimental group, the commercial cancer anti-metastatic drug Iressa (AstraZeneca), an EGFR-TK enzyme blocker, was added to the endothelial cell medium in doses of 100 nM, 500 nM, 1000 nM, 1500 nM, and 2000 nM. […]

The test system of test [3] is dorsal root ganglion (DRG) neurons. Nature of the test: DRG neuron migration into 3D collagen scaffold under slit-2 gradient. The class given is cell-based, mice. The conditions noted are these: slit-2 250 ng/mL. Here is the method: as §1, §2, §3
The subject of the next test is hippocampal neurons. Nature of the test: Hippocampal axonal turning under guidance cue gradient in 3D collagen gel, spider microfluidic device. Format: cell-based, mice. Here is the method:
as §1
Netrin-1 added in the channel was obtained from multiple sources: lab-isolated (T. Serafini, et al., Cell, 1994, 78, 409) netrin-1 (0.1-10 μg/mL), and netrin-1 released from cDNA transfected stable fibroblast cell line (K. Löw, et al., J. Neurosci., 2008, 28, 1099). […] Brain pulp was prepared in the lab from fresh whole mouse brain tissues. Briefly, the brain tissue was homogenized with a rotor stator in a hypotonic solution supplemented with protease inhibitors (protease inhibitor cocktail; Roche, USA), filtered, total protein content measured using a Bradford protein assay, and diluted to […] concentration. The chemorepellant used was Slit-2 (62.5 or 250 ng/mL; R&D Systems, Minneapolis, Minn.)). For chemosensing studies, the medium was removed from all the ports after 24-48 h of cell seeding, and 350 μL medium containing known concentration of guidance cue was introduced in the chemoattractant channel, and 350 μL serum-free media in each of the remaining two channels. For the experiments with netrin-1 being released from fibroblasts, transfected fibroblasts (1×10^5 cells) were seeded in the chemoattractant channel (source), and normal fibroblasts (non-transfected, 1×10^5 cells) were seeded in the left channel (sink). […] Netrin-1 released from the transfected fibroblasts diffuses across the collagen-1 gel and creates a gradient. The medium was changed at regular intervals to maintain chemogradient at all times. The control devices which received no guidance cues were cultured in the same procedure as with test cases.
as §3, with “devices. Florescent and phase contrast images were acquired with a Nikon TE300 microscope equipped with a Hamamatsu camera and Openlab image acquisition software. Axonal and nuclei staining were performed after fixation with 4% PFA (30 min).” for “devices.”

The mark [4] stands for this setting: slit-2 250 ng/mL in the right channel, n=64 axons.

Regarding `O=c1[nH]cc(F)c(=O)[nH]1` [5-FU, 5-fluorourasil, reference compound], the “DRG cell migration into the scaffold” value in test [1] (5-FU 10^−5 M seeded with DRG explants on day 0, 24 h culture) is “no cell migration into the scaffold was observed”.
Take `COc1cc2ncnc(Nc3ccc(F)c(Cl)c3)c2cc1OCCCN1CCOCC1` [Iressa]: the “behaviour of A549 cancer aggregates” value in test [2] (100 nM and 500 nM drug concentrations) is listed as “cancer aggregates were seen to break up”; in test [2] (1000 nM, 1500 nM and 2000 nM drug concentrations) it was “the cancer aggregates stayed intact”. The same molecule had a minimum effective dose in test [2] (drug in endothelial cell medium, keeps A549 aggregates intact) of 1000 nM.

B1: slit-2: chemorepellant guidance cue Slit-2 (R&D Systems) (protein, UniProt O94813 31-1529, looked up)
Slit homolog 2 protein: QCSCSGSTVDCHGLALRSVPRNIPRNTERLDLNGNNITRITKTDFAGLRHLRVLQLMENKISTIERGAFQDLKELERLRLNRNHLQLFPELLFLGTAKLYRLDLSENQIQAIPRKAFRGAVDIKNLQLDYNQISCIEDGAFRALRDLEVLTLNNNNITRLSVASFNHMPKLRTFRLHSNNLYCDCHLAWLSDWLRQRPRVGLYTQCMGPSHLRGHNVAEVQKREFVCSGHQSFMAPSCSVLHCPAACTCSNNIVDCRGKGLTEIPTNLPETITEIRLEQNTIKVIPPGAFSPYKKLRRIDLSNNQISELAPDAFQGLRSLNSLVLYGNKITELPKSLFEGLFSLQLLLLNANKINCLRVDAFQDLHNLNLLSLYDNKLQTIAKGTFSPLRAIQTMHLAQNPFICDCHLKWLADYLHTNPIETSGARCTSPRRLANKRIGQIKSKKFRCSAKEQYFIPGTEDYRSKLSGDCFADLACPEKCRCEGTTVDCSNQKLNKIPEHIPQYTAELRLNNNEFTVLEATGIFKKLPQLRKINFSNNKITDIEEGAFEGASGVNEILLTSNRLENVQHKMFKGLESLKTLMLRSNRITCVGNDSFIGLSSVRLLSLYDNQITTVAPGAFDTLHSLSTLNLLANPFNCNCYLAWLGEWLRKKRIVTGNPRCQKPYFLKEIPIQDVAIQDFTCDDGNDDNSCSPLSRCPTECTCLDTVVRCSNKGLKVLPKGIPRDVTELYLDGNQFTLVPKELSNYKHLTLIDLSNNRISTLSNQSFSNMTQLLTLILSYNRLRCIPPRTFDGLKSLRLLSLHGNDISVVPEGAFNDLSALSHLAIGANPLYCDCNMQWLSDWVKSEYKEPGIARCAGPGEMADKLLLTTPSKKFTCQGPVDVNILAKCNPCLSNPCKNDGTCNSDPVDFYRCTCPYGFKGQDCDVPIHACISNPCKHGGTCHLKEGEEDGFWCICADGFEGENCEVNVDDCEDNDCENNSTCVDGINNYTCLCPPEYTGELCEEKLDFCAQDLNPCQHDSKCILTPKGFKCDCTPGYVGEHCDIDFDDCQDNKCKNGAHCTDAVNGYTCICPEGYSGLFCEFSPPMVLPRTSPCDNFDCQNGAQCIVRINEPICQCLPGYQGEKCEKLVSVNFINKESYLQIPSAKVRPQTNITLQIATDEDSGILLYKGDKDHIAVELYRGRVRASYDTGSHPASAIYSVETINDGNFHIVELLALDQSLSLSVDGGNPKIITNLSKQSTLNFDSPLYVGGMPGKSNVASLRQAPGQNGTSFHGCIRNLYINSELQDFQKVPMQTGILPGCEPCHKKVCAHGTCQPSSQAGFTCECQEGWMGPLCDQRTNDPCLGNKCVHGTCLPINAFSYSCKCLEGHGGVLCDEEEDLFNPCQAIKCKHGKCRLSGLGQPYCECSSGYTGDSCDREISCRGERIRDYYQKQQGYAACQTTKKVSRLECRGGCAGGQCCGPLRSKRRKYSFECTDGSSFVDEVEKVVKCGCTRCVS
As for B1, the “DRG neuron migration down the gradient, percentage in Q3” value in test [3] is 74±12.5%. Besides, the “increase in DRG neuron migration down the gradient relative to controls” value in test [3] (p<0.001 vs. controls) amounted to 5 fold. Besides, in test [3] (p<0.01), the “increase in DRG neuron migration down the gradient relative to 62.5 ng/mL slit-2 gradient” value is listed as 2.7 fold. In the test on hippocampal neurons (increasing slit-2 from 62.5 ng/mL to 250 ng/mL, p<0.001), the “percentage of axons that turned away from the high concentration, 250 ng/mL versus 62.5 ng/mL” value is reported as “tripled”. Also, the “chemorepellent effect on hippocampal axonal turning” value in the test on hippocampal neurons (slit-2 62.5 ng/mL, n=51 axons) is “did not exhibit similar strong repellent characteristics”. Moreover, in the test with hippocampal neurons (setting [4]), the “percentage of axons in Q1 (towards guidance cue)” value came out at 18.2±4.5% and the “percentage of axons in Q3 (away from guidance cue)” value is 42.6±9.1%. For the same molecule, the “enhancement of axonal turning down the gradient relative to controls which received no cues” value in the test with hippocampal neurons (slit-2 250 ng/mL, p<0.001) is 3.4 fold. For the same molecule, the “percentage of DRG axons repelled” value in test [1] (slit-2 250 ng/mL in right hand channel after 24 h 5-FU, p<0.03 vs. controls) is reported as 70±14.2%. Also, the “inhibition of DRG neuron axonal turning into Q1 relative to control cultures” value in test [1] (slit-2 250 ng/mL, p<0.05 vs. controls) came out at 56%.
